Article PMC7289862, “Real-time tracking reveals catalytic roles for the two DNA binding sites of Rad51” (Nature Communications, 2019)
Residue numbers refer to the chain shown, from its start. Numbers in names are those of the source. One block for each binder: values may come before it.

Assays:
Rad51-L2 [1] = biological target: T1, Rad51-L2 (Schizosaccharomyces pombe, UniProt P36601 1-365, V295A); test: fluorescence anisotropy; 1 mM ATP, 3 mM MgCl2; Hill n 1.80; 30 mM HEPES-KOH pH 7.5, 100 mM KCl, 3 mM MgCl2, 1 mM DTT, 5% glycerol, 1 mM ATP, 25 C (EMSA: 2 mM ATP, 37 C, then 0.2% glutaraldehyde); settings: protein: recombinant; label: 5' TAMRA on strand 1; blunt
T1 sequence: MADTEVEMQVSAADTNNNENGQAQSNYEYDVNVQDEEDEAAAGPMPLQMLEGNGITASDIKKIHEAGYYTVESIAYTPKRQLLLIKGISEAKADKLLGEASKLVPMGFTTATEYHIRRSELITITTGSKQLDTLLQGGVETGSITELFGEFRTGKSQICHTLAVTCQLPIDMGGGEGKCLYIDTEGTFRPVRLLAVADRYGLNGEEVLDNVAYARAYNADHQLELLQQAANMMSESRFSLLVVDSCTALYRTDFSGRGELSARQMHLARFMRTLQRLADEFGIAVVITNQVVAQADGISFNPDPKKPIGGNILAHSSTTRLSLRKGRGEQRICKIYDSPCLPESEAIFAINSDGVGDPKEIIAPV

Rad51 wild-type [2] = biological target: T2, Rad51 wild-type (Schizosaccharomyces pombe, UniProt P36601 1-365); test: fluorescence anisotropy; 1 mM ATP, 3 mM MgCl2; Hill n 1.99; main text prints 2.79 uM; 30 mM HEPES-KOH pH 7.5, 100 mM KCl, 3 mM MgCl2, 1 mM DTT, 5% glycerol, 1 mM ATP, 25 C (EMSA: 2 mM ATP, 37 C, then 0.2% glutaraldehyde); settings: protein: recombinant; label: 5' TAMRA on strand 1; blunt
T2 sequence: T1 sequence with A295V

Rad51-L2 [3] = biological target: T1, Rad51-L2; test: FRET; 1 mM ATP; 1.40x B-form; 30 mM HEPES-KOH pH 7.5, 100 mM KCl, 3 mM MgCl2, 1 mM DTT, 5% glycerol, 1 mM ATP, 25 C (EMSA: 2 mM ATP, 37 C, then 0.2% glutaraldehyde); settings: protein: recombinant; label: internal fluorescein and ROX
Rad51-L1 [4] = biological target: T3, Rad51-L1 (Schizosaccharomyces pombe, UniProt P36601 1-365, R257A); test: FRET; 1 mM ATP; elongation comparable to WT; 30 mM HEPES-KOH pH 7.5, 100 mM KCl, 3 mM MgCl2, 1 mM DTT, 5% glycerol, 1 mM ATP, 25 C (EMSA: 2 mM ATP, 37 C, then 0.2% glutaraldehyde); settings: protein: recombinant; label: internal fluorescein and ROX
T3 sequence: T1 sequence with R257A, A295V

Rad51-S2 [5] = biological target: T4, Rad51-S2 (Schizosaccharomyces pombe, UniProt P36601 1-365, R324A;K334A); test: as above; settings: protein: recombinant; label: internal fluorescein and ROX
T4 sequence: T1 sequence with A295V, R324A, K334A

Rad51 wild-type [6] = biological target: T2, Rad51 wild-type; test: FRET; 1 mM ATP; ssDNA elongated to 1.45x B-form; 30 mM HEPES-KOH pH 7.5, 100 mM KCl, 3 mM MgCl2, 1 mM DTT, 5% glycerol, 1 mM ATP, 25 C (EMSA: 2 mM ATP, 37 C, then 0.2% glutaraldehyde); settings: protein: recombinant; label: internal fluorescein and ROX
Rad51 wild-type [7] = biological target: T2, Rad51 wild-type; test: FRET; 1 mM ATP; dsDNA elongated to 1.37x B-form; 30 mM HEPES-KOH pH 7.5, 100 mM KCl, 3 mM MgCl2, 1 mM DTT, 5% glycerol, 1 mM ATP, 25 C (EMSA: 2 mM ATP, 37 C, then 0.2% glutaraldehyde); settings: protein: recombinant; label: internal fluorescein and ROX on strand 1; blunt
Rad51-L2 [8] = biological target: T1, Rad51-L2; test: FRET; 1 mM ATP; reduced elongation, 1.28x B-form; 30 mM HEPES-KOH pH 7.5, 100 mM KCl, 3 mM MgCl2, 1 mM DTT, 5% glycerol, 1 mM ATP, 25 C (EMSA: 2 mM ATP, 37 C, then 0.2% glutaraldehyde); settings: protein: recombinant; label: internal fluorescein and ROX on strand 1; blunt
Swi5-Sfr1 complex = biological target: T5, Swi5-Sfr1 complex (UniProt Q9UUB7 1-85; Q9USV1 1-299); test: co-IP; purified Rad51 (2.5 uM) and Swi5-Sfr1 (2.5 uM) mixed in 30 mM Tris-HCl pH 7.5, 20 mM KCl, 3 mM MgCl2, 1 mM DTT, 5% glycerol, 0.05% NP-40, 30 min at 4 °C; precipitated with rabbit anti-Rad51 antibody and protein G magnetic beads; western blots for Rad51, Sfr1 and Swi5; settings: both partners purified
T5 construct: Swi5, subunit of the Swi5-Sfr1 complex; Sfr1, subunit of the Swi5-Sfr1 complex; Over-expressed and purified as a preformed complex; detected in the co-IP by blots for Sfr1 and Swi5; No tag is mentioned; also called Swi5-Sfr1 auxiliary factor; source: E. coli BL21-Codonplus(DE3) RIPL, purified as a complex (ammonium sulfate, Q Sepharose, HiTrap Heparin, Superdex 200)
T5 sequence (looked up) 1: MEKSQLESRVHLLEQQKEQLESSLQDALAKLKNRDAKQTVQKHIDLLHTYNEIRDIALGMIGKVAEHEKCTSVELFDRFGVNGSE
T5 sequence (looked up) 2: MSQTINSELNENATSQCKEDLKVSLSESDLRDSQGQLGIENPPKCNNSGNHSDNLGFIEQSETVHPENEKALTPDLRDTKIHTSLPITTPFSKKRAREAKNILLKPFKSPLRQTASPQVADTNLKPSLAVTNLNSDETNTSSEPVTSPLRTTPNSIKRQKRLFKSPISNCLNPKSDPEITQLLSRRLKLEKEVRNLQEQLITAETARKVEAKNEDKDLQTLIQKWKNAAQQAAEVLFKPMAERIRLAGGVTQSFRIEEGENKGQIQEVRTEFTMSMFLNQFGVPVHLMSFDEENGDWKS

Rad51-S2 [9] = biological target: T4, Rad51-S2; test: fluorescence anisotropy; 1 mM ATP, 3 mM MgCl2; Hill n 2.25; 30 mM HEPES-KOH pH 7.5, 100 mM KCl, 3 mM MgCl2, 1 mM DTT, 5% glycerol, 1 mM ATP, 25 C (EMSA: 2 mM ATP, 37 C, then 0.2% glutaraldehyde); settings: protein: recombinant; label: 5' TAMRA
Rad51-L2 [10] = biological target: T1, Rad51-L2; test: fluorescence anisotropy; 1 mM ATP, 3 mM MgCl2; Hill n 2.59; 30 mM HEPES-KOH pH 7.5, 100 mM KCl, 3 mM MgCl2, 1 mM DTT, 5% glycerol, 1 mM ATP, 25 C (EMSA: 2 mM ATP, 37 C, then 0.2% glutaraldehyde); settings: protein: recombinant; label: 5' TAMRA
Rad51 wild-type [11] = biological target: T2, Rad51 wild-type; test: fluorescence anisotropy; 1 mM ATP, 3 mM MgCl2; Hill n 2.86; 30 mM HEPES-KOH pH 7.5, 100 mM KCl, 3 mM MgCl2, 1 mM DTT, 5% glycerol, 1 mM ATP, 25 C (EMSA: 2 mM ATP, 37 C, then 0.2% glutaraldehyde); settings: protein: recombinant; label: 5' TAMRA
Rad51-L1 [12] = biological target: T3, Rad51-L1; test: fluorescence anisotropy; 1 mM ATP, 3 mM MgCl2; Hill n 2.94; 30 mM HEPES-KOH pH 7.5, 100 mM KCl, 3 mM MgCl2, 1 mM DTT, 5% glycerol, 1 mM ATP, 25 C (EMSA: 2 mM ATP, 37 C, then 0.2% glutaraldehyde); settings: protein: recombinant; label: 5' TAMRA

binding result (Swi5-Sfr1 complex): binds
B4: wild-type Rad51 from the fission yeast Schizosaccharomyces pombe (natural protein, UniProt P36601 1-365, looked up)
chain: T1 sequence with A295V
notes: Rad51 recombinase, Schizosaccharomyces pombe; No tag is mentioned; purification is by conventional chromatography; also called SpRad51; WT

binding result (Swi5-Sfr1 complex): binds
B5: Rad51-L2 mutant (V295A in loop 2) (natural protein, Schizosaccharomyces pombe, UniProt P36601 1-365, looked up)
chain: T1 sequence
notes: Rad51 recombinase, Schizosaccharomyces pombe, with V295A in L2; source: E. coli BL21-Codonplus(DE3) RIPL, purified (same procedure as wild-type Rad51)

binding result (Swi5-Sfr1 complex): binds
B6: Rad51-S2 mutant (R324A and K334A in site II) (natural protein, Schizosaccharomyces pombe, UniProt P36601 1-365, looked up)
chain: T1 sequence with A295V, R324A, K334A
notes: Rad51 recombinase, Schizosaccharomyces pombe, with R324A and K334A in site II; source: E. coli BL21-Codonplus(DE3) RIPL, purified (same procedure as wild-type Rad51)

binding result (Swi5-Sfr1 complex): binds
B7: Rad51-L1 mutant (R257A in loop 1) (natural protein, Schizosaccharomyces pombe, UniProt P36601 1-365, looked up)
chain: T1 sequence with R257A, A295V
notes: Rad51 recombinase, Schizosaccharomyces pombe, with R257A in L1; source: E. coli BL21-Codonplus(DE3) RIPL, purified (as wild-type Rad51, with a HiTrap Blue column instead of HiTrap Heparin)

The remaining lines, values behind:

B1: [TAMRA]16A(-)_72 bp duplex (dsDNA)
DNA 1: AAATGAACATAAAGTAAATAAGTATAAGGATAATACAAAATAAGTAAATGAATAAACATAGAAAATAAAGTA
DNA 2: TACTTTATTTTCTATGTTTATTCATTTACTTATTTTGTATTATCCTTATACTTATTTACTTTATGTTCATTT
Kd (Rad51-L2 [1]): 3520 ± 310 nM
Kd (Rad51 wild-type [2]): 2610 ± 200 nM

B2: 16(A)(-)_F+R_73 ssDNA (ssDNA)
DNA: AAATGAACATAAAGTAAATAAGTATAAGGATAATACAAAATTAAGTAAATGAATAAACATAGAAAATAAAGTA
modifications: fluorescein-dT at 31; ROX-dT at 42
binding result (Rad51-L2 [3]): binds
binding result (Rad51-L1 [4]): binds
binding result (Rad51-S2 [5]): binds
binding result (Rad51 wild-type [6]): binds

B3: 16(A)(-)_F+R_73 bp duplex (dsDNA)
DNA 1: B2 DNA
DNA 2: TACTTTATTTTCTATGTTTATTCATTTACTTAATTTTGTATTATCCTTATACTTATTTACTTTATGTTCATTT
modifications: fluorescein-dT at 31 and ROX-dT at 42 of strand 1
binding result (Rad51 wild-type [7]): binds
binding result (Rad51-L2 [8]): binds

B8: [TAMRA]dT72 (ssDNA)
DNA: TTTTTTTTTTTTTTTTTTTTTTTTTTTTTTTTTTTTTTTTTTTTTTTTTTTTTTTTTTTTTTTTTTTTTTTT
Kd (Rad51-S2 [9]): 895 ± 55 nM
Kd (Rad51-L2 [10]): 308 ± 19 nM
Kd (Rad51 wild-type [11]): 358 ± 25 nM
Kd (Rad51-L1 [12]): 664 ± 18 nM
